For orientation: IC50 means the concentration that gives 50% inhibition. Read a low IC50 as higher potency.

Here are results for 17 molecules from US20090175786A1 (published 2009).

Read-outs that look alike come from different tables or passages of the source. Where no end group is shown, it is not given here. [ ]: non-standard residue; d: D form. The star is where a group is joined. DOTA = O=C(O)CN1CCN(CC(=O)O)CCN(CC(=O)*)CCN(CC(=O)O)CC1; 4Abz = Nc1ccc(C(=O)O)cc1; Dap = NC[C@H](N)C(=O)O; AEEA = NCCOCCOCC(=O)O; Me2Gly = CN(C)CC(=O)*; Acm = CC(=O)NC*

The target in assay [1] is T1, gastrin releasing peptide receptor (GRP-R), human (human, UniProt P30550 1-384).
T1 construct: whole, on cells; also called GRP receptor; GRP-preferring receptor
As to the kind of experiment: displacement of 125I-universal ligand, human tumour sections. Background: Displacement assays read how much labelled ligand stays bound in the presence of the test substance.

Assay [2] has as its target T1, gastrin releasing peptide receptor …. As to the kind of experiment: 125I-BBN competition, PC3 cells.
Method: (§1) All compounds tested were dissolved in binding buffer and appropriate dilutions were also done in binding buffer. PC3 cells for assay were seeded at a concentration of 2.0×10⁴/well either in 96-well black/clear collagen I cellware plates (Beckton Dickinson Biocoat). Plates were used for binding studies on day 2 post-plating. The plates were checked for confluency (>90% confluent) prior to assay. […] The studies were conducted with an assay volume of 75 μL per well. Triplicate wells were used for each data point. After the addition of the appropriate solutions, plates were incubated for 1 hour at 4° C. Incubation was ended by the addition of 200 μL of ice-cold incubation buffer. Plates were washed 5 times and blotted dry. Radioactivity was detected using either a LKB CompuGamma counter or a microplate scintillation counter.
Assay [3] has the same target. Nature of the assay: 125I-BBN competition, PC3 cells. This is another data set of the same source.
Method: as §1
The target of assay [4] is T2, neuromedin-B preferring receptor (NMB-R) of C6 rodent glioblastoma cells (rodent, UniProt P24053 1-390, limits assumed).
T2 construct: whole, on cells; also called C6/NMB-R
T2 sequence (looked up): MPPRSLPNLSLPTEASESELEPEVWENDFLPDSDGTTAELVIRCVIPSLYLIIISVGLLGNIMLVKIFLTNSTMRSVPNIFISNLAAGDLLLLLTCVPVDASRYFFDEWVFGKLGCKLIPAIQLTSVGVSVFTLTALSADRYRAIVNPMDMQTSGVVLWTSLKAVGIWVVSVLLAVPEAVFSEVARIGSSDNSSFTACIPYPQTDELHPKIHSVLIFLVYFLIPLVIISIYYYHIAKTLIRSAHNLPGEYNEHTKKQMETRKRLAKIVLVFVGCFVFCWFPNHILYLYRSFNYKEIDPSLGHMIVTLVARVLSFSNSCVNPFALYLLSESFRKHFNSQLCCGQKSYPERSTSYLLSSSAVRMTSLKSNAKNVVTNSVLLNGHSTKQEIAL
Nature of the assay: 125I-NMB competition, C6 cells.
Method: The binding parameters obtained from the studies were analyzed using a one-site competition non-linear regression analysis with GraphPad Prism.

Assay [5] addresses T2, neuromedin-B preferring receptor …. Nature of the assay: 125I-NMB competition, C6 cells. This is another data set of the same source.
Assay [6] deals with T3, bombesin receptor subtype 3 (BB3-R), human (human, UniProt P32247 1-399).
T3 construct: whole, on cells; tissue sections, receptor autoradiography
T3 sequence (looked up): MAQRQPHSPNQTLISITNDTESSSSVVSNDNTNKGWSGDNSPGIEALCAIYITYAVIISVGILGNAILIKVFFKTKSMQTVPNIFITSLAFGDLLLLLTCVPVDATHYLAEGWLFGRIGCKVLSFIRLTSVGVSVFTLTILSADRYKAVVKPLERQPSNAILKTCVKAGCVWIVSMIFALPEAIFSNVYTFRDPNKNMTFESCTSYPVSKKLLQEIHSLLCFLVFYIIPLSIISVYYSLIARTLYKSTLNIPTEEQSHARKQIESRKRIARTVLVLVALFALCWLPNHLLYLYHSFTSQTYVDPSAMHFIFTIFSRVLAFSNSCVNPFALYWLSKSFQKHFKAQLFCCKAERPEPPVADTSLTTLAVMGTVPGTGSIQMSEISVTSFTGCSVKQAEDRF
Nature of the assay: receptor autoradiography on human tumour sections.
From the text: Human ileal carcinoid tissue was used as a source for NMB-R, human prostate carcinoma for GRP-R and human bronchial carcinoid for BB3-R subtype receptors.

Assay [7] concerns the target T1, gastrin releasing peptide receptor …. As to the kind of experiment: 125I-BBN competition, PC3 cells. This is another data set of the same source.
For assay [8] the target is unchanged. Nature of the assay: 125I-BBN competition, PC3 cells. The source holds these as a separate data set.

T1 sequence (P30550 whole entry): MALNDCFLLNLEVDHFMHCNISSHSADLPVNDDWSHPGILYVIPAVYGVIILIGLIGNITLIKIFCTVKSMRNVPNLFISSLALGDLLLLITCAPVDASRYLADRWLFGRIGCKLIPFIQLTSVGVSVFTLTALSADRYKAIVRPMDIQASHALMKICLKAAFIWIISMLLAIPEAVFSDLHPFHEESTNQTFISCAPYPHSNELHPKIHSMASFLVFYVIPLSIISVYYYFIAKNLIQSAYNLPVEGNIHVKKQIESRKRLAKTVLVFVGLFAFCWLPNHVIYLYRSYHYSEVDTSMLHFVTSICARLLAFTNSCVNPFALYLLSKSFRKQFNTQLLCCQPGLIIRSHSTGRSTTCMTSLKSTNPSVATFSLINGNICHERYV

B1: ^175Lu-L70 (peptide)
peptide: QWAVGHLM
modifications: N-terminus: 175Lu complex of DO3A-monoamide-Gly-4-aminobenzoic acid; C-terminal amide
With B1, the IC50 in assay [1] was 0.8 nM.

B2: DO3A-monoamide-G-Abz4-QWAGHFL-NH2 (peptide)
peptide: {DOTA}-G[4Abz]QWAGHFL-NH2
SMILES: CC(C)C[C@H](NC(=O)[C@H](Cc1ccccc1)NC(=O)[C@H](Cc1c[nH]cn1)NC(=O)CNC(=O)[C@H](C)NC(=O)[C@H](Cc1c[nH]c2ccccc12)NC(=O)[C@H](CCC(N)=O)NC(=O)c1ccc(NC(=O)CNC(=O)CN2CCN(CC(=O)O)CCN(CC(=O)O)CCN(CC(=O)O)CC2)cc1)C(N)=O
notes: also called L224
As for B2, the IC50 in assay [2] and in assay [3] was over 500 nM throughout.

For WAVGHLM-NH2 (also called BBN8-14) [WAVGHLM-NH2], the IC50 in assay [4] and in assay [5] was over 800 nM throughout.

B3: ^177Lu-L70 (peptide)
peptide: QWAVGHLM
modifications: N-terminus: 177Lu complex of DO3A-monoamide-Gly-4-aminobenzoic acid; C-terminal amide
notes: also called Lutetium complex of L70
As for B3, the binding result in assay [6] is on record as “no binding”.

B4: N,N-dimethylglycine-Ser-Cys(Acm)-Gly-2,3-diaminopropionic acid-8-amino-3,6-dioxaoctanoic acid-Gly-BBN(7-14) (peptide)
peptide: {Me2Gly-Ser-Cys(Acm)}-G[Dap][AEEA]GQWAVGHLM-NH2
notes: same M-N-O-P-G as printed for L61, other MS; also called L26
B4 yielded an IC50 in assay [7] of 30 nM.

As to {DOTA}-G[4Abz]LWATGHFM-NH2 (also called L227) [DO3A-monoamide-G-Abz4-LWATGHFM-NH2], the IC50 is 0.8 nM in assay [4] and 0.07 nM in assay [5].

B5: N,N-dimethylglycine-Ser-Cys(Acm)-Gly-8-amino-3,6-dioxaoctanoic acid-Arg-BBN(7-14) (peptide)
peptide: RQWAVGHLM
modifications: N-terminus: N,N-dimethylglycine-Ser-Cys(Acm)-Gly-8-amino-3,6-dioxaoctanoic acid; C-terminal amide
notes: also called L9
Consider B5, for which the IC50 in assay [7] turned out to be 6 nM.

B6: N,N-dimethylglycine-Ser-Cys(Acm)-Gly-N-1-piperazineacetic acid-Asp-BBN(7-14) (peptide)
peptide: DQWAVGHLM
modifications: N-terminus: N,N-dimethylglycine-Ser-Cys(Acm)-Gly-N-1-piperazineacetic acid; C-terminal amide
notes: also called L33
On to B6, for which the IC50 in assay [7] was over 50 nM.

B7: N,N-dimethylglycine-Ser-Cys(Acm)-Gly-N-4-aminoethyl-N-1-piperazineacetic acid-Asp-BBN(7-14) (peptide)
peptide: DQWAVGHLM
modifications: N-terminus: N,N-dimethylglycine-Ser-Cys(Acm)-Gly-N-4-aminoethyl-N-1-piperazineacetic acid; C-terminal amide
notes: also called L27
In assay [7], B7 came in with an IC50 of over 50 nM.

B8: N,N-dimethylglycine-Ser-Cys(Acm)-Gly-8-amino-3,6-dioxaoctanoic acid-Asp-BBN(7-14) (peptide)
peptide: DQWAVGHLM
modifications: N-terminus: N,N-dimethylglycine-Ser-Cys(Acm)-Gly-8-amino-3,6-dioxaoctanoic acid; C-terminal amide
notes: also called L10
In assay [7], B8 came in with an IC50 of over 50 nM.

B9: N,N-dimethylglycine-Ser-Cys(Acm)-Gly-8-amino-3,6-dioxaoctanoic acid-Lys-BBN(7-14) (peptide)
peptide: KQWAVGHLM
modifications: N-terminus: N,N-dimethylglycine-Ser-Cys(Acm)-Gly-8-amino-3,6-dioxaoctanoic acid; C-terminal amide
notes: also called L8
For B9, the IC50 in assay [7] was 4 nM.

B10: N,N-dimethylglycine-Ser-Cys(Acm)-Gly-8-amino-3,6-dioxaoctanoic acid-Glu-BBN(7-14) (peptide)
peptide: EQWAVGHLM
modifications: N-terminus: N,N-dimethylglycine-Ser-Cys(Acm)-Gly-8-amino-3,6-dioxaoctanoic acid; C-terminal amide
notes: also called L13
Consider B10, for which, in assay [7], the IC50 is over 50 nM.

B11: N,N-dimethylglycine-Ser-Cys(Acm)-Gly-8-amino-3,6-dioxaoctanoic acid-Arg-Gly-BBN(7-14) (peptide)
peptide: RGQWAVGHLM
modifications: N-terminus: N,N-dimethylglycine-Ser-Cys(Acm)-Gly-8-amino-3,6-dioxaoctanoic acid; C-terminal amide
notes: same M-N-O-P-G as printed for L22, other MS; also called L57
As to B11, the IC50 in assay [7] stood at 50 nM.

B12: N,N-dimethylglycine-Ser-Cys(Acm)-Gly-SS-QWAVGHLM-NH2 (peptide)
peptide: [Me2Gly]SC(Acm)GSSQWAVGHLM-NH2
SMILES: CSCC[C@H](NC(=O)[C@H](CC(C)C)NC(=O)[C@H](Cc1c[nH]cn1)NC(=O)CNC(=O)[C@@H](NC(=O)[C@H](C)NC(=O)[C@H](Cc1c[nH]c2ccccc12)NC(=O)[C@H](CCC(N)=O)NC(=O)[C@H](CO)NC(=O)[C@H](CO)NC(=O)CNC(=O)[C@H](CSCNC(C)=O)NC(=O)[C@H](CO)NC(=O)CN(C)C)C(C)C)C(N)=O
In assay [8], B12 gave an IC50 of 10 nM.

B13: N,N-dimethylglycine-Ser-Cys(Acm)-Gly-SR-QWAVGHLM-NH2 (peptide)
peptide: [Me2Gly]SC(Acm)GSRQWAVGHLM-NH2
SMILES: CSCC[C@H](NC(=O)[C@H](CC(C)C)NC(=O)[C@H](Cc1c[nH]cn1)NC(=O)CNC(=O)[C@@H](NC(=O)[C@H](C)NC(=O)[C@H](Cc1c[nH]c2ccccc12)NC(=O)[C@H](CCC(N)=O)NC(=O)[C@H](CCCNC(=N)N)NC(=O)[C@H](CO)NC(=O)CNC(=O)[C@H](CSCNC(C)=O)NC(=O)[C@H](CO)NC(=O)CN(C)C)C(C)C)C(N)=O
The molecule B13 yielded an IC50 in assay [4] of 2 nM.

B14: N,N-dimethylglycine-Ser-Cys(Acm)-Gly-KE-QWAVGHLM-NH2 (peptide)
peptide: [Me2Gly]SC(Acm)GKEQWAVGHLM-NH2
SMILES: CSCC[C@H](NC(=O)[C@H](CC(C)C)NC(=O)[C@H](Cc1c[nH]cn1)NC(=O)CNC(=O)[C@@H](NC(=O)[C@H](C)NC(=O)[C@H](Cc1c[nH]c2ccccc12)NC(=O)[C@H](CCC(N)=O)NC(=O)[C@H](CCC(=O)O)NC(=O)[C@H](CCCCN)NC(=O)CNC(=O)[C@H](CSCNC(C)=O)NC(=O)[C@H](CO)NC(=O)CN(C)C)C(C)C)C(N)=O
Turning to B14, the IC50 in assay [4] was determined as 60 nM. This IC50 lies about 30-fold higher than the previous one.

Consider [Me2Gly]SC(Acm)GSKQWAVGHLM-NH2 [N,N-dimethylglycine-Ser-Cys(Acm)-Gly-SK-QWAVGHLM-NH2], for which the IC50 in assay [8] is 2 nM.
